Test results taken from patent publication US20130189284A1 (TECHNION RESEARCH AND DEVELOPMENT FOUNDATION, published 2013).

Key:
[1] = molecular target: HA307-319 peptide ([…]), alone; assay: ELISA, immobilized peptide
[2] = molecular target: DR4/HA307-319 complex presented on cells (human, UniProt P01903 26-254; P01911 30-266); assay: flow cytometry on peptide-loaded Preiss cells

Binder	binding result [1]	binding result [2]
G3H8 Fab (Anti HLA-DR4/GAD555-567 Fab) (Fab, V domains shown, also called Fab G3H8; G3H8 TCRL Fab) VH: QVQLVQSGAEVKKPGASVKVSCKASGYTFTTYGISWVRQAPGQGLEWMGWISAYNGHTNYAQMLQGRVTMTTDTSTSTAYMELRGLRSDDTAVYYCAREAYASYGSGSYWTDYWGQGTLVTVSS VL: ETTLTQSPATLSVSPGERVTLSCRASQSVGSNLAWYQQKFGQAPRLLIYDASTRATGIPARFSGSGSGTEFTLTISRLEPEDFAVYYCHQYGSSPRTFGQGTKVDIKR	no binding (tested: 5 µg/ml soluble purified Fab)	no binding (tested: 1-5 µg of specific Fab per 10^6 cells)
G1H12 Fab (Anti HLA-DR4/GAD555-567 Fab) (Fab, V domains shown) VH: QVQLVQSGAEVKKPGASVKVSCKASGYTFTSYGISWVRQAPGQGLEWMGGIIPIFGTANYAQKFQGRVTITADKSTSTAYMELSSLRSEDTAVYYCARDPQSYYYDSSGFDYWGQGTLVTVSS VL: QSVLTQPPSVSAAPGQKVTISCSGSSSNIGNNYVSWYQQLPGTAPKLLIYDNNKRPSGIPDRFSGSKSGTSATLGITGLQTGDEADYYCGTWDSSLSVWVFGGGTKLTVLG	no binding (tested: 5 µg/ml soluble purified Fab)	no binding (tested: 1-5 µg of specific Fab per 10^6 cells)
